For one substance, Km and kcat results are on record in article PMC6362186, “Isolation and biochemical characterization of a metagenome-derived 3-deoxy-D-arabino-heptulosonate-7-phosphate synthase gene from subtropical marine mangrove wetland sediments” (AMB Express, 2019).

The series concerns T1, C=C(OP(=O)(O)O)C(=O)O.
T1 construct: His-tagged from pET-30a(+) HindIII/XhoI, tag removal not mentioned, ~37 kDa on SDS-PAGE; E. coli Rosetta (DE3), Ni resin; tetramer only by homology model
Kind of series: purified protein. Type of series: biochemical, uncultured bacterium. Conditions: co-substrate D-erythrose 4-phosphate, optimal conditions pH 8.0, 40 °C, CoCl2 0.1 mM in standard assay, PEP range printed as 0.1–0.5 μM.

In the case of Aro1A (uncultured bacterium), the Km (as a rule, the concentration of substrate that gives half-maximal velocity) came to 19.58 µM; the kcat – broadly, the number of substrate molecules converted per active site and unit of time at saturation – was 17.3 s⁻¹.
